# Source: US20170152308A1 (Biogen, published 2017)
# Read-outs that look alike come from different tables or passages of the source.
# Columns and labels:
# [1] = biological target: T1, recombinant full-length His-tagged human TDP-43 (2-414) (human, UniProt Q13148 2-414); assay: direct ELISA, coated antigen
# T1 construct: Amino terminal His tag, made in E. coli, purified in 8 M urea; also called full length TDP-43; full-length TDP-43
# Description: (§1) The half maximal effective concentration (EC₅₀) of the human-derived TDP-43-specific antibodies for human TDP-43 and their target target-specificity was determined substantially as described in Example 2 above. Briefly, 96 well microplates (Corning) were coated with recombinant full length TDP-43 (Biogen Idec, USA), Escherichia coli extract and BSA (Sigma, Buchs, Switzerland), diluted to a concentration of 5 μg/ml in carbonate ELISA coating buffer (pH 9.6) overnight at 4° C. […] Non-specific binding sites were blocked for 1 hr. at room temperature with PBS containing 2% BSA (Sigma, Buchs, Switzerland). Human TDP-43-specific antibodies were diluted to the indicated concentrations and incubated 1 hr. at room temperature. Binding was determined using a donkey anti-human IgGγ-specific secondary antibody conjugated with HRP (Jackson ImmunoResearch, USA), followed by measurement of HRP activity in a standard colorimetric assay. EC₅₀ values were estimated by a non-linear regression using GraphPad Prism software (San Diego, USA).
# [2] = biological target: T1, recombinant full-length His-tagged …; assay: direct ELISA, coated antigen; remark: listed apart in the source
# Description: as §1
# [3] = biological target: T2, 6xHis-SUMO-TDP-43 (1-414), properly folded full length (human, UniProt Q13148 1-414); assay: capture ELISA, antigen held by anti-6xHis antibody
# T2 construct: Purified with KSCN and arginine, monomeric; captured on the plate by an anti-6xHis antibody; also called folded full-length TDP-43; 6xHis/SUMO tagged full length TDP-43; not shown: N-terminal 6xHis and SUMO tags from a modified pET19-b vector
# Description: (§2) Non-specific binding sites were blocked for 1 hr at RT with PBS containing 1% BSA (Sigma) and 0.05% Tween-20 (Fisher Scientific). 6×His-SUMO-TDP43 proteins at a concentration of 1.7 μM were allowed to bind to antibody-coated plates for 1 hr at RT in PBS buffer containing 1% BSA, 300 mM arginine and 0.1% PEG 5000, pH 7.5. Plates were incubated for 1 hr at RT with human antibodies of present invention, titrated in a three-fold dilution series, followed by HRP conjugated anti-human IgG Fc γ (Jackson ImmunoResearch) in PBST containing 1% BSA. HRP activity was measured in a standard colorimetric assay. EC₅₀ values were calculated using a four-parameter logistic curve fit on Softmax pro software (Molecular Devices).
# (§3) We measured the binding affinity of the human-derived TDP-43 specific antibodies provided herein to properly folded 6×His/SUMO tagged TDP-43 using a capture ELISA in which native TDP-43 was immobilized without direct adsorption on the surface of the ELISA plate. This was achieved by immobilizing an anti 6×His antibody which then captured native TDP-43. […] After this immobilization step, binding by human antibodies was tested in regular buffers without interference of TDP-43 aggregation.
# [4] = biological target: T3, 6xHis-SUMO-TDP-43 (220-414) (human, UniProt Q13148 220-414); assay: capture ELISA, antigen held by anti-6xHis antibody
# T3 construct: Captured on the plate by an anti-6xHis antibody; also called 6xHis/SUMO tagged truncated TDP-43; not shown: N-terminal 6xHis and SUMO tags from a modified pET19-b vector
# Description: as §2, §3
# [5] = biological target: T4, His-huTDP-43 domain III (amino acid residues 183-273) (human); assay: Western blot
# T4 construct: Amino terminal His-tagged fragment, E. coli
# T4 chain: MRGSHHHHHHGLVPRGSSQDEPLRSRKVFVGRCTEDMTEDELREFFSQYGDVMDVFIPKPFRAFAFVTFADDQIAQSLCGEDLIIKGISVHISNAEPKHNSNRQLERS
# Description: (§4) Non-specific binding sites were blocked for 1 hr. at room temperature with PBST containing 2% BSA (Sigma, Buchs, Switzerland). Blots were incubated overnight with primary antibodies (10 nM) followed by either a donkey anti-human IgGγ-specific secondary antibody conjugated with HRP (Jackson ImmunoResearch, USA) or a goat-anti mouse IgG (H+L)-specific secondary antibody conjugated with HRP (Jackson ImmunoResearch, USA). Blots were developed using ECL and ImageQuant 350 detection (GE Healthcare, Otelfingen, Switzerland).
# (§5) Commercially available TDP-43 specific antibody TARDBP (M01), clone 2E2-D3 (Abnova, Taiwan) was used as positive control for human TDP-43 detection whereas, an anti-human IgG Fcγ-specific antibody was used as a negative control. Binding of the human-derived antibodies to specific TDP-43 domains was determined by Western Blot analysis.
# [6] = biological target: T5, His-huTDP-43 domain IV (amino acid residues 258-414) (human, UniProt Q13148 258-414); assay: direct ELISA, His-tagged TDP-43 fragments coated at 6.6 ug/ml, OD 450
# T5 construct: Amino terminal His-tagged fragment, E. coli, solubilized in 8 M urea; also called Glycine-rich domain
# Description: (§6) Non-specific binding sites were blocked for 1 hr. at room temperature with PBST containing 2% BSA (Sigma, Buchs, Switzerland). Antibodies were incubated 1 hr. at room temperature. Binding was determined using either a donkey anti-human IgGγ-specific antibody conjugated with HRP (Jackson ImmunoResearch, USA) or a goat-anti mouse IgG (H+L)-specific secondary antibody conjugated with HRP (Jackson ImmunoResearch, USA)., followed by measurement of HRP activity in a standard colorimetric assay.
# [7] = biological target: T6, His-huTDP-43 domain II (amino acid residues 99-204) (human); assay: as above
# T6 construct: Amino terminal His-tagged fragment, E. coli
# T6 chain: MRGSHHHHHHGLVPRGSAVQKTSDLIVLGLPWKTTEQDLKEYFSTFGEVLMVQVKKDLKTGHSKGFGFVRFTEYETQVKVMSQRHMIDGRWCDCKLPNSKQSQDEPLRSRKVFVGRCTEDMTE
# Description: as §6
# [8] = biological target: T7, His-huTDP-43 domain I (amino acid residues 2-106) (human); assay: as above
# T7 construct: Amino terminal His-tagged fragment, E. coli; also called N-terminal domain
# T7 chain: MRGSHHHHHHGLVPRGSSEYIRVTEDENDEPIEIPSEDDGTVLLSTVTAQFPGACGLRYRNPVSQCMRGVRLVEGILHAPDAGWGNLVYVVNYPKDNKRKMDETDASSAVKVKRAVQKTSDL
# Description: as §6
# [9] = biological target: T6, His-huTDP-43 domain II (amino acid …); assay: Western blot
# Description: as §4, §5
# [10] = biological target: T4, His-huTDP-43 domain III (amino acid …); assay: direct ELISA, His-tagged TDP-43 fragments coated at 6.6 ug/ml, OD 450
# Description: as §6
# [11] = biological target: T6, His-huTDP-43 domain II (amino acid …); assay: direct ELISA, TDP-43 fragments coated at 6.6 ug/ml, OD 450
# Description: as §6
# [12] = biological target: T4, His-huTDP-43 domain III (amino acid …); assay: as above
# Description: as §6
# [13] = biological target: T7, His-huTDP-43 domain I (amino acid …); assay: as above
# Description: as §6
# [14] = biological target: T6, His-huTDP-43 domain II (amino acid …); assay: Western blot, 300 ng recombinant protein per lane, primary antibody 10 nM
# Description: as §4
# [15] = biological target: T4, His-huTDP-43 domain III (amino acid …); assay: as above
# Description: as §4
# [16] = biological target: T7, His-huTDP-43 domain I (amino acid …); assay: as above
# Description: as §4
# BSA = biological target: T8, BSA (bovine, UniProt P02769); assay: direct ELISA, BSA coated at 5 ug/ml as control, OD 450
# T8 construct: control coating in the EC50 ELISA; also called bovine serum albumin (Sigma, Buchs, Switzerland)
# Description: as §1, with “To determine the” for “The”, “to evaluate target-specificity,” for “their target target-specificity was determined substantially as described in Example 2 above. Briefly,”
# The half maximal effective concentration (EC₅₀) of the human-derived TDP-43-specific antibodies for human TDP-43 and their target target-specificity was determined substantially as described in Example 2 above. […]
# T5 sequence (Q13148 other isoform, or with tags, fused parts or gaps limits assumed): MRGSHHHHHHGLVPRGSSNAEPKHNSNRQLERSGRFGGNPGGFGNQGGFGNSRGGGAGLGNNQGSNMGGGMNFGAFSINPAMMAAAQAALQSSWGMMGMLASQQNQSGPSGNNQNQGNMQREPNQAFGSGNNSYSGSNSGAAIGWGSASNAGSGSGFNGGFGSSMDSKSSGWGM
# T3 sequence (Q13148 220-414): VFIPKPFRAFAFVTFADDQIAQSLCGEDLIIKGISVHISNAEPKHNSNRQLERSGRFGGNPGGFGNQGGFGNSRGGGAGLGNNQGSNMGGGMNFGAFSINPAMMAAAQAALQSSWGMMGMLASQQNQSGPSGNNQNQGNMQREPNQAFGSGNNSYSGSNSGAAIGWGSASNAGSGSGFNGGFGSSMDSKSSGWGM
# T2 sequence (Q13148 whole entry): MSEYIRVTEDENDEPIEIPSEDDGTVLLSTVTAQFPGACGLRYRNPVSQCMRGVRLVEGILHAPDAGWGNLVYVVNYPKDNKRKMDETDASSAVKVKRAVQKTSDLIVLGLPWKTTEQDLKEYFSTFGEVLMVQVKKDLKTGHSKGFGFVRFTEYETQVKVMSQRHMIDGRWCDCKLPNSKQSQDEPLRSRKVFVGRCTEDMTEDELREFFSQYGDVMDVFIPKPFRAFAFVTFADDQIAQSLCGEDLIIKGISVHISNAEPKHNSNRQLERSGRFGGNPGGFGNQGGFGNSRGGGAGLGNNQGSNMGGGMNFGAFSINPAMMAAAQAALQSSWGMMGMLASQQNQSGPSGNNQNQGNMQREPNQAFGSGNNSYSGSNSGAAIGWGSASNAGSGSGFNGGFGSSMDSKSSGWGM
# T8 sequence (P02769 25-607 limits assumed): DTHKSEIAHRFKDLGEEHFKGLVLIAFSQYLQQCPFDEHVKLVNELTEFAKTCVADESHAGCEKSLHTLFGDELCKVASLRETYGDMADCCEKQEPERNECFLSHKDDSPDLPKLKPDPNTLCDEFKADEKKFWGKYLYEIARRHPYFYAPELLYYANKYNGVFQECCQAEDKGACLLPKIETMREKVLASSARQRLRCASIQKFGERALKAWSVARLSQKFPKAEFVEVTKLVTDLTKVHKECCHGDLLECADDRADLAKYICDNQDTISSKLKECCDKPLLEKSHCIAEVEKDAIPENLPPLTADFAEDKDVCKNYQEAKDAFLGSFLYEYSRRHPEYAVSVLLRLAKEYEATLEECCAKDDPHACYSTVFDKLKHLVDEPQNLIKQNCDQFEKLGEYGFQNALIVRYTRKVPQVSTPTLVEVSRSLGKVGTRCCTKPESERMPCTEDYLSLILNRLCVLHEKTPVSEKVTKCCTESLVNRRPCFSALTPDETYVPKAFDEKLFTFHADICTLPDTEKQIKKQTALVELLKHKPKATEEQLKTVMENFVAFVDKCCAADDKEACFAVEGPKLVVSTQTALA
binder,measurement,setting,value
"NI-205.51C1 (antibody, human IgG1, V domains shown, Human-derived) VH: EVQLVESGGGLVQPGGSLRISCTTSGFIFSDYWMHWVRQAPGKGLTWVSRINLDGSDTIYADSVKGRFTISRDNDKNTLYLQMNSLRVEDTAIYYCARSRKSVWGQGTMVTVSS VL: QSALTQPASVSGSPGQSITISCTGSNTDVGAYDYVSWSQQLPGKAPKFVIFDVDVRPSGISDRFSGSKSGNTASLTISGLQAEDEADYYCSSYTKSGTLVFGGGTKVTVV",EC50,[1],0.18 nM
same,EC50,[2],0.18 nM
same,EC50,[3],1.1 nM
same,binding result,[4],no binding
same,binding result,[5],binds
same,binding result,[6],no binding
same,binding result,[7],no binding
same,binding result,[8],no binding
"NI-205.3F10 (antibody, human IgG1, V domains shown, Human-derived) VH: EVQLLESGGDLVQPGGSLRLSCAASGFTFSSQAMSWVRQAPGKGLEWVSALSRTGDYTWYADSVRGRFTVSRDDSKNIFYLEMNSLRAEDTAVYYCAKNYYSSFGYNWAAFHIWGQGTMVTVSS VL: EIVLTQSPGTLSLSPGERATLSCRASQDVNNNYLAWYQQKPGQAPRLLIYGASRRATGVPDRFSGRGSGTDFTLTINRLEPEDFAMYFCQQYGGSPPYTFGQGTKLEIK",EC50,[1],1.4 nM
same,EC50,[2],1.4 to 2.8 nM
same,EC50,[3],> 90 nM
same,binding result,[4],no binding
same,binding result,[5],binds
same,binding result,[6],no binding
same,binding result,[7],no binding
same,binding result,[8],no binding
"NI-205.21G2 (antibody, human IgG1, V domains shown, Human-derived) VH: QVQLVQSGAEVKKPGASVKVSCKTSGYSFTSYTLHWVRQAPGHRPEWMGWINAAFINTKYSQKFQGRITLTRDTSANIAYLELRSLTTEDTAVYYCARRASGSNGLDVWGQGTTVTVSS VL: DIQMTQSPSSLSASVGDRITITCQASRDITNYLNWYQQKPGKAPKLLIYDASYLETGVPSTFSGSGSGTHFTLTISSLQPDDFATYYCQQYDSVPLTFGGGTKVEIK",EC50,[1],0.24 nM
same,EC50,[2],0.24 nM
same,EC50,[3],3.6 nM
same,binding result,[4],no binding
same,binding result,[9],binds
same,binding result,[6],no binding
same,binding result,[10],no binding
same,binding result,[8],no binding
"NI-205.44B2 (antibody, human IgG1, V domains shown, Human-derived; also called NI205.44B22) VH: QVQLQESGPGVVKPSQTLSLTCTVSGVSVGSGDYYWSWIRHHPGKGLEWIGYISFFGSSNYNPSLKGRVSMSVDTSNNQFSLNLKSVTAADTAVYFCATGNAYSFWGQGTMVTVSS VL: QSALTQPASVSGSPGQSITISCTGTSSDIGTHNLVSWYQQHPGKAPKLIIYEIFERPSGISSRFTGSKSGNTASLTISGLQAEDEADYFCCAYSVTVIFGGGTKLTVL",EC50,[1],2.8 nM
same,EC50,[3],> 125 nM
same,EC50,[4],33.5 nM
same,binding result,[11],no binding
same,binding result,[12],no binding
same,binding result,[13],no binding
"NI-205.21G1 (antibody, human IgG1, V domains shown, Human-derived; also called NI-21G1) VH: QVQLVESGGGVVQPGMSLRLSCAASGFSFSSHGMHWVRQTPGKGLEWLAVISYDASNKSYADSVKGRFTISRDNSKKTLYLQMDSLRVEDTALYYCANAFSSSASGGYWGQGTLVTVSS VL: DVVMTQSPLSLPVTLGQPASISCRSSQSLVHSDGVTYLNWFQQRPGQSPRRLIYKVSNRDSGVPDRFSGSGSGTDFTLEISRVEAEDVGIYYCMQGTHWPPWTFGQGTKVEIK",EC50,[1],4.1 nM
same,EC50,[2],4.1 nM
same,EC50,[3],4.4 nM
same,EC50,[4],0.33 nM
same,binding result,[14],no binding (tested: 10 nM)
same,binding result,[15],no binding (tested: 10 nM)
same,binding result,[16],no binding (tested: 10 nM)
same,binding result,BSA,no binding (tested: about 4x10^5 pM)
